Results: patent publication US20050100554A1 (published 2005)

How the values were obtained:
[1] = target: T1, catenin (cadherin-associated protein), delta 2 (neural plakophilin-related arm-repeat protein) (human, UniProt Q9UQB3 1-1225); experiment: Y2H; INT ID 397
T1 construct: also called CTNND2; cbe_1796502
T1 sequence: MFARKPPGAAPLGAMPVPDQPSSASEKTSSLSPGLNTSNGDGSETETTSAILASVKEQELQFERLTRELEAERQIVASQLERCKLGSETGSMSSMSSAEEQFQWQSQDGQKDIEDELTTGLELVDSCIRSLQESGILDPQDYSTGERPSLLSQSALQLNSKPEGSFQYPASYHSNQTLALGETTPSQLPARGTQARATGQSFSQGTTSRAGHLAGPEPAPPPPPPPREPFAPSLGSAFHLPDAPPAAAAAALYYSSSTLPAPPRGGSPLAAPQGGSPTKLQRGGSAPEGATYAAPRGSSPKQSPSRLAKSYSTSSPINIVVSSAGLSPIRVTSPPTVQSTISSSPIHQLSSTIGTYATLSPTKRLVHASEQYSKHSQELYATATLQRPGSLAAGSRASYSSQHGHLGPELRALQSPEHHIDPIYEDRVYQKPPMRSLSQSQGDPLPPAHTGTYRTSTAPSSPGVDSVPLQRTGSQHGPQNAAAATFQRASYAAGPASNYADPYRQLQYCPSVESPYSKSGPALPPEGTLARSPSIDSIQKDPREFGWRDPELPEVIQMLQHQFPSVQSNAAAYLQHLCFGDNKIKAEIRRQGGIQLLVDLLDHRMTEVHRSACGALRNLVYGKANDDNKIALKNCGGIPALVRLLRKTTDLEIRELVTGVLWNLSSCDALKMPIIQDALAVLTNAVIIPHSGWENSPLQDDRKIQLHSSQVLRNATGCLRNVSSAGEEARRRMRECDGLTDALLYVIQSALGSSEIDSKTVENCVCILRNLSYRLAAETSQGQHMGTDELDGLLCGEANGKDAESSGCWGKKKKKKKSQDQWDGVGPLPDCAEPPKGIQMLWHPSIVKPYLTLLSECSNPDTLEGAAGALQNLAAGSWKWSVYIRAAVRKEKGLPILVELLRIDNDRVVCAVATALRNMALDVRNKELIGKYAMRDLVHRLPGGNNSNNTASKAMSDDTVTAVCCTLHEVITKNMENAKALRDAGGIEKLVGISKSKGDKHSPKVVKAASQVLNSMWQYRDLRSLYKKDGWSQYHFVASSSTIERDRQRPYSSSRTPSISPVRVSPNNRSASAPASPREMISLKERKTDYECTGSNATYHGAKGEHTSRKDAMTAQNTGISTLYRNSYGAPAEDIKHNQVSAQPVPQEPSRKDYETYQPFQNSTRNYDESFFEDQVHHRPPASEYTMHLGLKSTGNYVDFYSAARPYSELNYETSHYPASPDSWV

[2] = target: T2, hypothetical protein FLJ22729 (human, UniProt Q96QE5 203-360); experiment: Y2H; INT ID 398
T2 construct: also called cbe_1807361
T2 sequence: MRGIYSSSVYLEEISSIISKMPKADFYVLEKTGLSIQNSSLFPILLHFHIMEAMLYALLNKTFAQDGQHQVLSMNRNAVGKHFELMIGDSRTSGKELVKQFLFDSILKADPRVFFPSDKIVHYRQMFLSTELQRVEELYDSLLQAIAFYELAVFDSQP

[3] = target: T3, tumor necrosis factor, alpha-induced protein 1 (endothelial) (human, UniProt Q13829 1-316); experiment: Y2H; INT ID 402
T3 construct: also called TNFAIP1; cbe_3705944
T3 sequence: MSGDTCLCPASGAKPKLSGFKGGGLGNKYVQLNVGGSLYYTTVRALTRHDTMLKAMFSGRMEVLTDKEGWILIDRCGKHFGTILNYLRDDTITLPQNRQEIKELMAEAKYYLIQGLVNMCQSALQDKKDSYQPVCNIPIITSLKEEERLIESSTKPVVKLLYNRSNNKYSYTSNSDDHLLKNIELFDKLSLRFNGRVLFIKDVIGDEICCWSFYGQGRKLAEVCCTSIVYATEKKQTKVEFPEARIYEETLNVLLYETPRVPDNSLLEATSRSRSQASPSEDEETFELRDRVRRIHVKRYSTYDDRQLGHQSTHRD

[4] = target: T4, CKM (human, UniProt P06732 1-381); experiment: Y2H; INT ID 403
T4 construct: also called MARK4

Measured: binding result

T4 sequence (P06732 whole entry): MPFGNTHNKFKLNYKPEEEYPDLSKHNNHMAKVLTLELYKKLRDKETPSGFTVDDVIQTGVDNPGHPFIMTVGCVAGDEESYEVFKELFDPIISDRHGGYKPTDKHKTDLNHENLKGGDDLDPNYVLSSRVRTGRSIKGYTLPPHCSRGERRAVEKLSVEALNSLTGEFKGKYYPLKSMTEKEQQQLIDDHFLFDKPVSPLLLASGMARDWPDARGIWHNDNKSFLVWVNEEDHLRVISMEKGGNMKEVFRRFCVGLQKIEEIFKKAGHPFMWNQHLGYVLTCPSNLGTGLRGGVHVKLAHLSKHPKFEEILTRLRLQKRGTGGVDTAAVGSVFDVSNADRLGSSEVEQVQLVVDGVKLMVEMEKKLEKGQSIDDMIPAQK

B1: Human Papillomavirus 1a E1-E4 (other)
chain: MADNKAPQGLLGLLQYTPTTQPYPRVTPPSNRRPSTTPNSQDRGRPRRSDKDSRKHLYADGLTDGEDPEVPEVEDEEKENQRPLGHPDLSLLRETLEVYTQRLKRDILQDLDDFCRKLGIHPWSV
notes: also called HPV 1a E1-E4; cbe_251740
binds: all assays above
